Measured values as given in patent US20250376507A1, “NOVEL TUMOR ANTIGEN-TARGETING ANTICANCER AGENT” (INDUSTRY FOUNDATION OF CHONNAM NATIONAL UNIVERSITY, priority 2022, published 2025).

Tests used:
[1] = In vivo pharmacokinetic analysis; parameters: species or system BALB/c mice; details: 10 IU intravenous, mouse serum
Protocol: Six-week-old female BALB/c mice (Orient Company, Korea) were randomly assigned to different treatment groups (n=3) and intravenously injected with 10 IU of PASylated recombinant protein. Then, blood samples were taken from the eyes at the specified time (0-52 h) and left at 4° C. for 40 min. After centrifugation at 12,000 rpm for 20 min, the serum fraction was obtained and stored at −80° C. before further analysis. PASylated recombinant protein in serum was assessed using the ELISA method described above. The amount of serum recombinant protein was converted to enzyme activity.

[2] = target: T1, recombinant calreticulin protein (rCRT) (Homo sapiens, UniProt P27797); experiment: Binding affinity of recombinant proteins for CRT by ELISA; details: for Kd: ELISA, read-out: dissociation constant (Kd) for CRT; for affinity for CRT relative to single CRT3/CRT4 monobody: compared with monobodies of Zhang et al. 2021
T1 construct: purchased Abcam
T1 sequence (P27797 18-417): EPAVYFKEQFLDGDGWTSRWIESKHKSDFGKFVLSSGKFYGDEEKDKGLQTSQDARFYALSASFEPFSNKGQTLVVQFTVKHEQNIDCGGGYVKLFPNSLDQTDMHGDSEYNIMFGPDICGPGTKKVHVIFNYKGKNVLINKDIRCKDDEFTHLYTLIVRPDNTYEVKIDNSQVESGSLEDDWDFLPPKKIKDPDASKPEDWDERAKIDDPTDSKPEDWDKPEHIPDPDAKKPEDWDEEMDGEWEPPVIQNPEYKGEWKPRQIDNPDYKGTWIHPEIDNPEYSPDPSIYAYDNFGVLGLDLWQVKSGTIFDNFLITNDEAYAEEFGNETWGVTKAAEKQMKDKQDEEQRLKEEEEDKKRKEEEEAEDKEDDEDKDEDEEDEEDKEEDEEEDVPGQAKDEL
Protocol: The affinity of the recombinant protein for CRT was measured by enzyme-linked immunosorbent analysis (ELISA) (J. D. Beatty, et al., Journal of immunological methods 100(1-2), 173-179, 1987). In brief, 100 μL of PASylated CRT-targeted L-ASNases coated onto 96-well microplates (0-10 μM/well) overnight at 4° C. Unbound proteins were removed by aspiration from the wells and 100 μL of 10 μM rCRT proteins were added to each well and incubated for 2 h at room temperature. After rCRTs were removed, rabbit anti-CRT antibodies (diluted to 1:500) were added to each well and incubated for 2 h at room temperature. The antibodies were removed by aspiration, and the wells were washed five times with T-PBS. Then, biotin-conjugated anti-rabbit secondary antibodies (diluted to 1:1000) were added and incubated for 1 h. After washing with T-PBS, 100 μL of avidin-HRP (diluted to 1:250) was added to each well and incubated for 30 minutes at room temperature. After aspiration and washing five times, 100 μL of 1×3,3′,5,5′-tetramethylbenzidine (TMB) buffer (Thermo Fisher Scientific, USA) was added to each well to form a […] reaction product. After 15 minutes, 50 μL of 0.5 M H2SO4 solution was added to each well to stop the chromogenic reaction. The amount of colorimetric product was evaluated as the optical density value at 450 nm (OD450) by a SpectraMax M2 microtiter plate reader (Molecular Devices, USA).

B1: CRT3LP: PASylated L-ASNase fused with CRT-targeting CRT3 monobody at N-terminus and PAS200 tag plus His6 tag at C-terminus (protein)
chain: MASVSDVPRDLEVVAATPTSLLISWKLGFFKRYYRITYGETGGNSPVQEFTVPGSKSTATISGLKPGVDYTITVYAVTGQPMYGQPMYPISINYRTSGGGGSGGGGSEFLPNITILATGGTIAGGGDSATKSNYTAGKVGVENLVNAVPQLKDIANVKGEQVVNIGSQDMNDDVWLTLAKKINTDCDKTDGFVITHGTDTMEETAYFLDLTVKCDKPVVMVGAMRPSTSMSADGPFNLYNAVVTAADKASANRGVLVVMNDTVLDGRDVTKTNTTDVATFKSVNYGPLGYIHNGKIDYQRTPARKHTSDTPFDVSKLNELPKVGIVYNYANASDLPAKALVDAGYDGIVSAGVGNGNLYKTVFDTLATAAKNGTAVVRSSRVPTGATTQDVEVDDAKYGFVASGTLNPQKARVLLQLALTQTKDPQQIQQIFNQYGSSGGGGSGGGGSASPAAPAPASPAAPAPSAPAASPAAPAPASPAAPAPSAPAASPAAPAPASPAAPAPSAPAASPAAPAPASPAAPAPSAPAASPAAPAPASPAAPAPSAPAASPAAPAPASPAAPAPSAPAASPAAPAPASPAAPAPSAPAASPAAPAPASPAAPAPSAPAASPAAPAPASPAAPAPSAPAASPAAPAPASPAAPAPSAPAAGSHHHHHH
In the case of B1, the half-life [1] is reported as 9.34 ± 0.91 h, the Kd [2] is reported as 2.07 ± 0.173 nM and the “affinity for CRT relative to single CRT3/CRT4 monobody” value [2] is reported as “four times higher”.

B2: CRT4LP: PASylated L-ASNase fused with CRT-targeting CRT4 monobody at N-terminus and PAS200 tag plus His6 tag at C-terminus (protein)
chain: MASVSDVPRDLEVVAATPTSLLISWGQPMYGQPMYYYRITYGETGGNSPVQEFTVPGSKSTATISGLKPGVDYTITVYAVTKLGFFKRPISINYRTSGGGGSGGGGSEFLPNITILATGGTIAGGGDSATKSNYTAGKVGVENLVNAVPQLKDIANVKGEQVVNIGSQDMNDDVWLTLAKKINTDCDKTDGFVITHGTDTMEETAYFLDLTVKCDKPVVMVGAMRPSTSMSADGPFNLYNAVVTAADKASANRGVLVVMNDTVLDGRDVTKTNTTDVATFKSVNYGPLGYIHNGKIDYQRTPARKHTSDTPFDVSKLNELPKVGIVYNYANASDLPAKALVDAGYDGIVSAGVGNGNLYKTVFDTLATAAKNGTAVVRSSRVPTGATTQDVEVDDAKYGFVASGTLNPQKARVLLQLALTQTKDPQQIQQIFNQYGSSGGGGSGGGGSASPAAPAPASPAAPAPSAPAASPAAPAPASPAAPAPSAPAASPAAPAPASPAAPAPSAPAASPAAPAPASPAAPAPSAPAASPAAPAPASPAAPAPSAPAASPAAPAPASPAAPAPSAPAASPAAPAPASPAAPAPSAPAASPAAPAPASPAAPAPSAPAASPAAPAPASPAAPAPSAPAASPAAPAPASPAAPAPSAPAAGSHHHHHH
With B2 the Kd [2] was 2.3 ± 0.166 nM and the “affinity for CRT relative to single CRT3/CRT4 monobody” value [2] was “four times higher”.
